Test results: patent publication US20110166062A1
Where no end group is shown, it is not given here. [ ]: non-standard residue; d: D form. The star is where a group is joined. Palmitoyl = CCCCCCCCCCCCCCCC(=O)*; Aib = CC(C)(N)C(=O)O

Experiments:
Assay in all cases: cell-based or functional assay
[1] = target: glucagon receptor, P47871
GIP receptor, P48546 = target: T1, GIP receptor, P48546
T1 chain: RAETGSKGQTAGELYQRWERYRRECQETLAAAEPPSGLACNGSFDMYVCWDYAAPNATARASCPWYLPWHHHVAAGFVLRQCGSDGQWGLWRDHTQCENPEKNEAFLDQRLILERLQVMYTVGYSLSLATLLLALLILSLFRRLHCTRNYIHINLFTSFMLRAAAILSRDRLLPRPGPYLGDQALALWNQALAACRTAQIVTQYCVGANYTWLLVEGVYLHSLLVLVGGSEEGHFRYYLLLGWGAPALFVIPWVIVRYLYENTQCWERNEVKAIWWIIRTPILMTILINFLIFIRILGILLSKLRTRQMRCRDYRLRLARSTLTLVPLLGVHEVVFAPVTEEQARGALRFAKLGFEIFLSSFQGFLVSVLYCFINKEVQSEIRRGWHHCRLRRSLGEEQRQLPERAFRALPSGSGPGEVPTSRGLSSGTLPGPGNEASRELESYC

GLP-1 receptor, P43220 = target: T2, GLP-1 receptor, P43220
T2 chain: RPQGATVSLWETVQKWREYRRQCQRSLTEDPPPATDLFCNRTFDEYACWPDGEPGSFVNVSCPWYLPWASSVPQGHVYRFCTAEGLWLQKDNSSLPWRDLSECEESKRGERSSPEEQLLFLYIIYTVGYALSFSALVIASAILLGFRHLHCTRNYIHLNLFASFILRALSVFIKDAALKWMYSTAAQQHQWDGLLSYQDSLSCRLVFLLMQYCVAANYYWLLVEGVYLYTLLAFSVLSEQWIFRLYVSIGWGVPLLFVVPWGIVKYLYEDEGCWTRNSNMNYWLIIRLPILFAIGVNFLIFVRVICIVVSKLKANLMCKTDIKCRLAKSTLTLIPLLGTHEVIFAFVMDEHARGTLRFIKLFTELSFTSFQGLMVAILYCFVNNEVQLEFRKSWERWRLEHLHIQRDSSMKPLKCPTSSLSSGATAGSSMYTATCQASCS

Sequence of glucagon receptor, P47871 (P47871 26-477 limits assumed): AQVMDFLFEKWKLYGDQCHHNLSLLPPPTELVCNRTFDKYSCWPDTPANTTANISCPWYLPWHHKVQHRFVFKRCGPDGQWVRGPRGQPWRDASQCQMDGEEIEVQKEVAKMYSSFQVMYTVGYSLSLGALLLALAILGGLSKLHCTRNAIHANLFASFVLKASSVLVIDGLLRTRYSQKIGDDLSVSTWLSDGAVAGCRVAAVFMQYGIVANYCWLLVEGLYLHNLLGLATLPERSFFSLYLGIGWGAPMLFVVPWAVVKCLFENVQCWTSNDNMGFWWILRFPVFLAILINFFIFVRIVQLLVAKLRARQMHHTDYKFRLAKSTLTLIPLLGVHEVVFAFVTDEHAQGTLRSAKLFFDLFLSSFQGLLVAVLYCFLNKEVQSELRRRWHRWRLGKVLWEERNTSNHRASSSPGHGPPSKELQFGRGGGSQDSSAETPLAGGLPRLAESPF

B1: mt-297 (peptide)
peptide: Y[Aib]QGTFTSDYSIYLDKQAA[Aib]EFVCWLMNGGPSSGAPPPSK(Palmitoyl)-NH2
modifications: N-terminus assumed
SMILES: CCCCCCCCCCCCCCCC(=O)NCCCC[C@H](NC(=O)[C@H](CO)NC(=O)[C@@H]1CCCN1C(=O)[C@@H]1CCCN1C(=O)[C@@H]1CCCN1C(=O)[C@H](C)NC(=O)CNC(=O)[C@H](CO)NC(=O)[C@H](CO)NC(=O)[C@@H]1CCCN1C(=O)CNC(=O)CNC(=O)[C@H](CC(N)=O)NC(=O)[C@H](CCSC)NC(=O)[C@H](CC(C)C)NC(=O)[C@H](Cc1c[nH]c2ccccc12)NC(=O)[C@H](CS)NC(=O)[C@@H](NC(=O)[C@H](Cc1ccccc1)NC(=O)[C@H](CCC(=O)O)NC(=O)C(C)(C)NC(=O)[C@H](C)NC(=O)[C@H](C)NC(=O)[C@H](CCC(N)=O)NC(=O)[C@H](CCCCN)NC(=O)[C@H](CC(=O)O)NC(=O)[C@H](CC(C)C)NC(=O)[C@H](Cc1ccc(O)cc1)NC(=O)[C@@H](NC(=O)[C@H](CO)NC(=O)[C@H](Cc1ccc(O)cc1)NC(=O)[C@H](CC(=O)O)NC(=O)[C@H](CO)NC(=O)[C@@H](NC(=O)[C@H](Cc1ccccc1)NC(=O)[C@@H](NC(=O)CNC(=O)[C@H](CCC(N)=O)NC(=O)C(C)(C)NC(=O)[C@@H](N)Cc1ccc(O)cc1)[C@@H](C)O)[C@@H](C)O)[C@@H](C)CC)C(C)C)C(N)=O
Work on B1 yielded an EC50 [1] of 0.0132 nM, an EC50 (GIP receptor, P48546) of 0.0168 nM and an EC50 (GLP-1 receptor, P43220) of 0.0129 nM.
